# From article PMC2857867 (The FASEB Journal, 2010)
# B1: mIFNβ (ligand)
# chain: INYKQLQLQERTNIRKCQELLEQLNGKINLTYRADFKIPMEMTEKMQKSYTAFAIQEMLQNVFLVFRNNFSSTGWNETIVVRLLDELHQQTVFLKTVLEEKQEERLTWEMSSTALHLKSYYWRVQRYLKLMKYNSYAWMVVRAEIFRNFLIIRRLTRNFQN
# B2: mIL-28A (ligand)
# chain: DPVPRATRLPVEAKDCHIAQFKSLSPKELQAFKKAKDAIEKRLLEKDLRCSSHLFPRAWDLKQLQVQERPKALQAEVALTLKVWENMTDSALATILGQPLHTLSHIHSQLQTCTQLQATAEPRSPSRRLSRWLHRLQEAQSKETPGCLEASVTSNLFRLLTRDLKCVANGDQCV
# B3: hIL-28A (ligand)
# chain: VPVARLHGALPDARGCHIAQFKSLSPQELQAFKRAKDALEESLLLKDCRCHSRLFPRTWDLRQLQVRERPMALEAELALTLKVLEATADTDPALVDVLDQPLHTLHHILSQFRACIQPQPTAGPRTRGRLHHWLYRLQEAPKKESPGCLEASVTFNLFRLLTRDLNCVASGDLCV
# B4: mIFNα-A (ligand)
# chain: CDLPHTYNLRNKRALKVLAQMRRLPFLSCLKDRQDFGFPLEKVDNQQIQKAQAIPVLRDLTQQTLNLFTSKASSAAWNATLLDSFCNDLHQQLNDLQTCLMQQVGVQEPPLTQEDALLAVRKYFHRITVYLREKKHSPCAWEVVRAEVWRALSSSVNLLPRLSEEKE
# B5: mIL-10 (ligand)
# chain: SRGQYSREDNNCTHFPVGQSHMLLELRTAFSQVKTFFQTKDQLDNILLTDSLMQDFKGYLGCQALSEMIQFYLVEVMPQAEKHGPEIKEHLNSLGEKLKTLRMRLRRCHRFLPCENKSKAVEQVKSDFNKLQDQGVYKAMNEFDIFINCIEAYMMIKMKS
# Key:
# [1] = target: T1, VACV strain WR IFNα/βBP B18 (vaccinia virus strain Western Reserve, UniProt P25213 20-351); test: SPR
# [2] = target: T1, VACV strain WR IFNα/βBP B18; test: SPR; remark: listed apart in the source
Binder,Kd [1] [nM],koff [1] [s⁻¹],kon [1] [M⁻¹ s⁻¹],binding result [2]
B1,3.2,0.000333,104000,–
B2,13.4,0.0112,832000,–
B3,14.9,0.00364,245000,–
B4,0.455,0.000784,1.72e+06,–
B5,–,–,–,binds
